Where “and” joins values, the source holds several entries; their conditions need not be identical. Equal entries are not always repeated.
Assays:
Caspase-1 [1] = target: T1, Caspase-1 (Homo sapiens, UniProt P29466); assay: SEPARATE assay: 56-amino acid mouse peptidome library digested with Caspase-1; format: biochemical; settings: mouse library peptides of IL-1β and Gsdmd, FIG. 8
T1 construct: purchased BioVision
T1 sequence (P29466 120-297 limits assumed): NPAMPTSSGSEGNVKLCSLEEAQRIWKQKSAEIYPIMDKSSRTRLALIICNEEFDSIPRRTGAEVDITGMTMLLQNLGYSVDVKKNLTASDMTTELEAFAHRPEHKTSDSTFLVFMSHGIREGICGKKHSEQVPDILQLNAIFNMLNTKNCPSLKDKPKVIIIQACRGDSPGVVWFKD
T1 sequence (P29466 317-404 limits assumed): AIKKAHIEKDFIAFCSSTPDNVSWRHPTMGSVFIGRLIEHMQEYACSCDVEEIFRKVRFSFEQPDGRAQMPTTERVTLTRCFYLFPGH
Procedure: (§1) Streptavidin-coupled magnetic beads (Dynabeads M-280 Streptavidin, ThermoFisher Scientific) were washed (TBS, pH 7.4, 0.01% NP40) and resuspended in binding buffer (TBS, pH 7.4, 0.001% NP40) containing 2E9 plaque forming units per 10 μl of bead slurry. End-over-end mixing at room temperature was performed for one hour. Phage-coated beads were washed three times with wash buffer and transferred into two protein LoBind Eppendorf tubes blocked with TBS, pH 7.4 containing 1% BSA.
Digestion occurred overnight at room temperature with end-over-end rotation. […]
Library PCR preparation, high-throughput DNA sequencing, and peptide read count data generation was performed as described previously.^44 Briefly, library peptide inserts are amplified by resuspending 10 μl of FLAG-coated Protein G beads in PCR1 master mix containing the T7-Pep2_PCR1_F forward primer ([…]) (SEQ ID NO:3) and a T7-SEPARATE vector specific reverse primer ([…]) (SEQ ID NO:4), which includes an adapter sequence for sample-specific barcoding and Illumina P7 adapter incorporation during a subsequent PCR2 reaction. The PCR2 amplicons are pooled and sequenced using an Illumina NextSeq instrument in standard output mode to obtain single-end 50 nucleotide reads. Dual indexed sample demultiplexing and clonal read count determination were performed using exact sequence matching. […]

Caspase-1 [2] = target: T1, Caspase-1; assay: SEPARATE assay: human peptidome library digest with Caspase-1; format: biochemical; settings: human library, Caspase-1
Procedure: as §1
Digestion occurred overnight at room temperature with end-over-end rotation. […] To remove any residual biotinylated phage that may have been nonspecifically released, the 150 μl supernatant of the quenched digest reaction is then incubated with a fresh 10 μl of slurry volume M280 streptavidin beads (pre-washed three times with wash buffer) in a LoBind Eppendorf tube blocked with TBS, pH 7.4 containing 1% BSA at room temperature for one hour with end-over-end rotation.
10 μl slurry volume of protein G magnetic dynabeads were washed in buffer (TBS, pH 7.4, 0.01% NP40) and then resuspended in 50 μl TBS, pH 7.4, 0.01% NP40 containing 4 μg of M2 FLAG antibody for thirty minutes at room temperature with end-over-end rotation. The 150 μl quenched digest reaction is added to the 10 μl FLAG-coated Protein G beads and incubated for 60 minutes at room temperature with end-over-end rotation to capture phage particles released at the protease digest step. Beads are rinsed once with 100 μl wash buffer and stored at −80° C. until PCR amplification.
Library PCR preparation, high-throughput DNA sequencing, and peptide read count data generation was performed as described previously.^44 Briefly, library peptide inserts are amplified by resuspending 10 μl of FLAG-coated Protein G beads in PCR1 master mix containing the T7-Pep2_PCR1_F forward primer ([…]) (SEQ ID NO:3) and a T7-SEPARATE vector specific reverse primer ([…]) (SEQ ID NO:4), which includes an adapter sequence for sample-specific barcoding and Illumina P7 adapter incorporation during a subsequent PCR2 reaction. The PCR2 amplicons are pooled and sequenced using an Illumina NextSeq instrument in standard output mode to obtain single-end 50 nucleotide reads. Dual indexed sample demultiplexing and clonal read count determination were performed using exact sequence matching. […] To calculate the normalization factor, 100 peptides were randomly selected from the mock digest conditions with a read count ranging between 10 and 40. The median read count value for these 100 peptides is calculated for each sample. The random peptide selection and median calculation is performed 20 times and the average of the 20 median values is calculated for each sample. Finally, the normalization factor is calculated by dividing the average median value for each sample by that for one of the mock digest conditions. Read counts are then converted to normalized read counts by dividing each sample's read count values by the normalization factor. Fold enrichments are calculated for each peptide by dividing their normalized read counts in the digest condition by the normalized read counts in the mock digest condition. The fold enrichments can be visualized in an MA plot by transforming the normalized read count data into a log ratio (M, on the y-axis) and a mean average (A, on the x-axis) between the digest and mock digest conditions.

endogenous Caspase-1 = target: T2, endogenous Caspase-1 (Homo sapiens, UniProt P29466); assay: In vitro stimulation of the inflammasome in THP-1 cells (Western blot); format: cell-based; settings: PMA differentiated THP-1 cells, LPS and Nigericin
T2 construct: endogenous in cells; host or cells: PMA-differentiated THP-1 cells
T2 sequence (P29466 120-404): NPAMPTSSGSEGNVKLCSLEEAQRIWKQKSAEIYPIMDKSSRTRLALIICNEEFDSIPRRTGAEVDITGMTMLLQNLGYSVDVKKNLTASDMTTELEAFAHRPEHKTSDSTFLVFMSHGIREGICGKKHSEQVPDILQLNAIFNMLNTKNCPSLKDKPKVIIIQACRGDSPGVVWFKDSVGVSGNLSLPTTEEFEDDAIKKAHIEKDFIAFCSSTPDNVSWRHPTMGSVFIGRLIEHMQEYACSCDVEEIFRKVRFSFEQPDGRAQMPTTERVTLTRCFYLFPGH
Procedure: THP-1 cells were cultured in RPMI-1640 media with Glutamax (Gibco, ThermoFisher, Cat #61870127), supplemented with 10% FBS (Hyclone SH30071, GE Life Sciences), and 1× Antibiotic-Antimycotic (Gibco, ThermoFisher, Cat #15240062), referred to as complete RPMI. To differentiate THP-1 cells into macrophages, 1×10^6 THP-1 cells were added per well of a 6-well plate in complete RPMI medium containing 50 ng/ml Phorbol 12-myristate 13-acetate (PMA, diluted in RPMI medium from a 1 mg/ml PMA stock in DMSO, Millipore Sigma, Cat. No. P1585). After 48 hours when the cells become adherent, the medium with PMA was removed, cells washed in 1×PBS once, and fresh complete RPMI was added. Cells were allowed to rest for an additional 24 hours before inflammasome activation with LPS and Nigericin.
A 6-well plate of PMA differentiated THP-1 cells were treated with 0, 1 or 0.1 μg/ml LPS (Millipore Sigma, Cat. No. LPS25) for 3.5 hours. After 3.5 hours, cells were treated with 2.5 μM Nigericin for an additional 30 minutes to activate the inflammasome. Cells were washed in 1×PBS and lysed in 1× mammalian cell extraction buffer (BioVision, Cat. No. K269) containing 2 μM Dithiothreitol (DTT). Nuclei were spun down by centrifugation (10,000 rpm, 5 minutes, 4° C.) and the cleared supernatant was used to perform Western blots. […]

Thrombin = target: T3, Thrombin (Homo sapiens, UniProt P00734); assay: SEPARATE assay: human peptidome library digest with Thrombin; format: biochemical; settings: top 20 enriched peptides, human library (90-aa tiles); digest vs mock digest
T3 construct: Thrombin (a serine protease); purchased SignalChem
Procedure: The PCR2 amplicons are pooled and sequenced using an Illumina NextSeq instrument in standard output mode to obtain single-end 50 nucleotide reads. Dual indexed sample demultiplexing and clonal read count determination were performed using exact sequence matching. […] To calculate the normalization factor, 100 peptides were randomly selected from the mock digest conditions with a read count ranging between 10 and 40. The median read count value for these 100 peptides is calculated for each sample. The random peptide selection and median calculation is performed 20 times and the average of the 20 median values is calculated for each sample. Finally, the normalization factor is calculated by dividing the average median value for each sample by that for one of the mock digest conditions. […]

B1: IL-1β: mouse IL-1β (SEQ ID NO:73); library peptides containing Caspase-1 cleavage sites D26 and D117 (protein, UniProt P10749 118-269, looked up)
Interleukin-1 beta: VPIRQLHYRLRDEQQKSLVLSDPYELKALHLNGQNINQQVIFSMSFVQGEPSNDKIPVALGLKGKNLYLSCVMKDGTPTLQLESVDPKQYPKKKMEKRFVFNKIEVKSKVEFESAEFPNWYISTSQAEHKPVFLGNNSGQDIIDFTMESVSS
B1 was tested, and the Fold enrichments (Caspase-1 [1]) was 7.5 fold and 13 fold and 9 fold.

B2: Gasdermin-D: well characterized human Caspase-1 substrate (protein, UniProt P57764 1-484, looked up)
Gasdermin-D: MGSAFERVVRRVVQELDHGGEFIPVTSLQSSTGFQPYCLVVRKPSSSWFWKPRYKCVNLSIKDILEPDAAEPDVQRGRSFHFYDAMDGQIQGSVELAAPGQAKIAGGAAVSDSSSTSMNVYSLSVDPNTWQTLLHERHLRQPEHKVLQQLRSRGDNVYVVTEVLQTQKEVEVTRTHKREGSGRFSLPGATCLQGEGQGHLSQKKTVTIPSGSTLAFRVAQLVIDSDLDVLLFPDKKQRTFQPPATGHKRSTSEGAWPQLPSGLSMMRCLHNFLTDGVPAEGAFTEDFQGLRAEVETISKELELLDRELCQLLLEGLEGVLRDQLALRALEEALEQGQSLGPVEPLDGPAGAVLECLVLSSGMLVPELAIPVVYLLGALTMLSETQHKLLAEALESQTLLGPLELVGSLLEQSAPWQERSTMSLPPGLLGNSWGEGAPAWVLLDECGLELGEDTPHVCWEPQAQGRMCALYASLALLSGLSQEPH
B2 was tested, and the “scoring in the SEPARATE assay” value (Caspase-1 [2]) was “did not score” and the “cleavage by endogenous Caspase-1 upon inflammasome activation (Western blot)” value (endogenous Caspase-1) was “cleaved”.

B3: APLPRSNRSRCPGTRQPGAASLHAASAAVPVRPRRGTAPAGKTADAVPAAAPEQAPRPAPQSRKPRNLEGDLDERRLLCHLQLAQDREAR (protein, listed as Homo sapiens)
chain: APLPRSNRSRCPGTRQPGAASLHAASAAVPVRPRRGTAPAGKTADAVPAAAPEQAPRPAPQSRKPRNLEGDLDERRLLCHLQLAQDREAR
For B3, the “Thrombi Fold Change” value (Thrombin) was 10.98 fold.

— US12091776B2, “Protease activity profiling via programmable phage display of comprehensive proteome-scale peptide libraries” (THE JOHNS HOPKINS UNIVERSITY, priority 2019, dated 2024)
